# Assay results from patent US20200087373A1 (UNIVERSITY OF COPENHAGEN, published 2020).
# Ends that are not written are not given here. * marks the point of attachment. C16 diacid = O=C(O)CCCCCCCCCCCCCCC(=O)*
# T1: human GIP receptor (human, UniProt P48546 22-466)
# T1 sequence (looked up): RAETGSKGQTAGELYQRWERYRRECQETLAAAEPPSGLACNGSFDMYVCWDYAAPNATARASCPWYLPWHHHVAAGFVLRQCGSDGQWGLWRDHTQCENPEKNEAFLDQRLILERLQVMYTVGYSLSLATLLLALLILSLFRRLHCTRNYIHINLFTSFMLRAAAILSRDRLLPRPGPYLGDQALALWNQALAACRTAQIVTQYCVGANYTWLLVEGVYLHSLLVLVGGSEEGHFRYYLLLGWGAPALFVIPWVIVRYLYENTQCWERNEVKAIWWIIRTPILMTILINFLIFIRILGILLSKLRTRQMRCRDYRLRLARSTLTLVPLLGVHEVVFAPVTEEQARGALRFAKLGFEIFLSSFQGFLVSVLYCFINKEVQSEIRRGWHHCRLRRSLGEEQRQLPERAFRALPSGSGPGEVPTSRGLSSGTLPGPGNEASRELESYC
# B1: AT370 [hGIP(3-30)NH2-C16diacid/16] (peptide)
# peptide: EGTFISDYSIAMDK(C16 diacid)IHQQDFVNWLLAQK-NH2
# B2: AT303 [hGIP(3-30)NH2[I12K]-C16diacid/12] (peptide)
# peptide: EGTFISDYSK(C16 diacid)AMDKIHQQDFVNWLLAQK-NH2
# modifications: N-terminus assumed
# SMILES: CC[C@H](C)[C@H](NC(=O)[C@H](CCCCN)NC(=O)[C@H](CC(=O)O)NC(=O)[C@H](CCSC)NC(=O)[C@H](C)NC(=O)[C@H](CCCCNC(=O)CCCCCCCCCCCCCCC(=O)O)NC(=O)[C@H](CO)NC(=O)[C@H](Cc1ccc(O)cc1)NC(=O)[C@H](CC(=O)O)NC(=O)[C@H](CO)NC(=O)[C@@H](NC(=O)[C@H](Cc1ccccc1)NC(=O)[C@@H](NC(=O)CNC(=O)[C@@H](N)CCC(=O)O)[C@@H](C)O)[C@@H](C)CC)C(=O)N[C@@H](Cc1c[nH]cn1)C(=O)N[C@@H](CCC(N)=O)C(=O)N[C@@H](CCC(N)=O)C(=O)N[C@@H](CC(=O)O)C(=O)N[C@@H](Cc1ccccc1)C(=O)N[C@H](C(=O)N[C@@H](CC(N)=O)C(=O)N[C@@H](Cc1c[nH]c2ccccc12)C(=O)N[C@@H](CC(C)C)C(=O)N[C@@H](CC(C)C)C(=O)N[C@@H](C)C(=O)N[C@@H](CCC(N)=O)C(=O)N[C@@H](CCCCN)C(N)=O)C(C)C
# B3: AT305 [hGIP(3-30)NH2[M14K]-C16diacid/14] (peptide)
# peptide: EGTFISDYSIAK(C16 diacid)DKIHQQDFVNWLLAQK-NH2
# modifications: N-terminus assumed
# SMILES: CC[C@H](C)[C@H](NC(=O)[C@H](CO)NC(=O)[C@H](Cc1ccc(O)cc1)NC(=O)[C@H](CC(=O)O)NC(=O)[C@H](CO)NC(=O)[C@@H](NC(=O)[C@H](Cc1ccccc1)NC(=O)[C@@H](NC(=O)CNC(=O)[C@@H](N)CCC(=O)O)[C@@H](C)O)[C@@H](C)CC)C(=O)N[C@@H](C)C(=O)N[C@@H](CCCCNC(=O)CCCCCCCCCCCCCCC(=O)O)C(=O)N[C@@H](CC(=O)O)C(=O)N[C@@H](CCCCN)C(=O)N[C@H](C(=O)N[C@@H](Cc1c[nH]cn1)C(=O)N[C@@H](CCC(N)=O)C(=O)N[C@@H](CCC(N)=O)C(=O)N[C@@H](CC(=O)O)C(=O)N[C@@H](Cc1ccccc1)C(=O)N[C@H](C(=O)N[C@@H](CC(N)=O)C(=O)N[C@@H](Cc1c[nH]c2ccccc12)C(=O)N[C@@H](CC(C)C)C(=O)N[C@@H](CC(C)C)C(=O)N[C@@H](C)C(=O)N[C@@H](CCC(N)=O)C(=O)N[C@@H](CCCCN)C(N)=O)C(C)C)[C@@H](C)CC
# B4: AT307 [hGIP(3-30)NH2[I17K]-C16diacid/17] (peptide)
# peptide: EGTFISDYSIAMDKK(C16 diacid)HQQDFVNWLLAQK-NH2
# modifications: N-terminus assumed
# SMILES: CC[C@H](C)[C@H](NC(=O)[C@H](CO)NC(=O)[C@H](Cc1ccc(O)cc1)NC(=O)[C@H](CC(=O)O)NC(=O)[C@H](CO)NC(=O)[C@@H](NC(=O)[C@H](Cc1ccccc1)NC(=O)[C@@H](NC(=O)CNC(=O)[C@@H](N)CCC(=O)O)[C@@H](C)O)[C@@H](C)CC)C(=O)N[C@@H](C)C(=O)N[C@@H](CCSC)C(=O)N[C@@H](CC(=O)O)C(=O)N[C@@H](CCCCN)C(=O)N[C@@H](CCCCNC(=O)CCCCCCCCCCCCCCC(=O)O)C(=O)N[C@@H](Cc1c[nH]cn1)C(=O)N[C@@H](CCC(N)=O)C(=O)N[C@@H](CCC(N)=O)C(=O)N[C@@H](CC(=O)O)C(=O)N[C@@H](Cc1ccccc1)C(=O)N[C@H](C(=O)N[C@@H](CC(N)=O)C(=O)N[C@@H](Cc1c[nH]c2ccccc12)C(=O)N[C@@H](CC(C)C)C(=O)N[C@@H](CC(C)C)C(=O)N[C@@H](C)C(=O)N[C@@H](CCC(N)=O)C(=O)N[C@@H](CCCCN)C(N)=O)C(C)C
# B5: AT304 [hGIP(3-30)NH2[A13K]-C16diacid/13] (peptide)
# peptide: EGTFISDYSIK(C16 diacid)MDKIHQQDFVNWLLAQK-NH2
# modifications: N-terminus assumed
# SMILES: CC[C@H](C)[C@H](NC(=O)[C@H](CCCCN)NC(=O)[C@H](CC(=O)O)NC(=O)[C@H](CCSC)NC(=O)[C@H](CCCCNC(=O)CCCCCCCCCCCCCCC(=O)O)NC(=O)[C@@H](NC(=O)[C@H](CO)NC(=O)[C@H](Cc1ccc(O)cc1)NC(=O)[C@H](CC(=O)O)NC(=O)[C@H](CO)NC(=O)[C@@H](NC(=O)[C@H](Cc1ccccc1)NC(=O)[C@@H](NC(=O)CNC(=O)[C@@H](N)CCC(=O)O)[C@@H](C)O)[C@@H](C)CC)[C@@H](C)CC)C(=O)N[C@@H](Cc1c[nH]cn1)C(=O)N[C@@H](CCC(N)=O)C(=O)N[C@@H](CCC(N)=O)C(=O)N[C@@H](CC(=O)O)C(=O)N[C@@H](Cc1ccccc1)C(=O)N[C@H](C(=O)N[C@@H](CC(N)=O)C(=O)N[C@@H](Cc1c[nH]c2ccccc12)C(=O)N[C@@H](CC(C)C)C(=O)N[C@@H](CC(C)C)C(=O)N[C@@H](C)C(=O)N[C@@H](CCC(N)=O)C(=O)N[C@@H](CCCCN)C(N)=O)C(C)C
# B6: AT301 [hGIP(3-30)NH2[Y10K]-C16diacid/10] (peptide)
# peptide: EGTFISDK(C16 diacid)SIAMDKIHQQDFVNWLLAQK-NH2
# modifications: N-terminus assumed
# SMILES: CC[C@H](C)[C@H](NC(=O)[C@H](CO)NC(=O)[C@H](CCCCNC(=O)CCCCCCCCCCCCCCC(=O)O)NC(=O)[C@H](CC(=O)O)NC(=O)[C@H](CO)NC(=O)[C@@H](NC(=O)[C@H](Cc1ccccc1)NC(=O)[C@@H](NC(=O)CNC(=O)[C@@H](N)CCC(=O)O)[C@@H](C)O)[C@@H](C)CC)C(=O)N[C@@H](C)C(=O)N[C@@H](CCSC)C(=O)N[C@@H](CC(=O)O)C(=O)N[C@@H](CCCCN)C(=O)N[C@H](C(=O)N[C@@H](Cc1c[nH]cn1)C(=O)N[C@@H](CCC(N)=O)C(=O)N[C@@H](CCC(N)=O)C(=O)N[C@@H](CC(=O)O)C(=O)N[C@@H](Cc1ccccc1)C(=O)N[C@H](C(=O)N[C@@H](CC(N)=O)C(=O)N[C@@H](Cc1c[nH]c2ccccc12)C(=O)N[C@@H](CC(C)C)C(=O)N[C@@H](CC(C)C)C(=O)N[C@@H](C)C(=O)N[C@@H](CCC(N)=O)C(=O)N[C@@H](CCCCN)C(N)=O)C(C)C)[C@@H](C)CC
# B7: AT302 [hGIP(3-30)NH2[S11K]-C16diacid/11] (peptide)
# peptide: EGTFISDYK(C16 diacid)IAMDKIHQQDFVNWLLAQK-NH2
# modifications: N-terminus assumed
# SMILES: CC[C@H](C)[C@H](NC(=O)[C@H](CCCCNC(=O)CCCCCCCCCCCCCCC(=O)O)NC(=O)[C@H](Cc1ccc(O)cc1)NC(=O)[C@H](CC(=O)O)NC(=O)[C@H](CO)NC(=O)[C@@H](NC(=O)[C@H](Cc1ccccc1)NC(=O)[C@@H](NC(=O)CNC(=O)[C@@H](N)CCC(=O)O)[C@@H](C)O)[C@@H](C)CC)C(=O)N[C@@H](C)C(=O)N[C@@H](CCSC)C(=O)N[C@@H](CC(=O)O)C(=O)N[C@@H](CCCCN)C(=O)N[C@H](C(=O)N[C@@H](Cc1c[nH]cn1)C(=O)N[C@@H](CCC(N)=O)C(=O)N[C@@H](CCC(N)=O)C(=O)N[C@@H](CC(=O)O)C(=O)N[C@@H](Cc1ccccc1)C(=O)N[C@H](C(=O)N[C@@H](CC(N)=O)C(=O)N[C@@H](Cc1c[nH]c2ccccc12)C(=O)N[C@@H](CC(C)C)C(=O)N[C@@H](CC(C)C)C(=O)N[C@@H](C)C(=O)N[C@@H](CCC(N)=O)C(=O)N[C@@H](CCCCN)C(N)=O)C(C)C)[C@@H](C)CC
# B8: AT306 [hGIP(3-30)NH2[D15K]-C16diacid/15] (peptide)
# peptide: EGTFISDYSIAMK(C16 diacid)KIHQQDFVNWLLAQK-NH2
# modifications: N-terminus assumed
# SMILES: CC[C@H](C)[C@H](NC(=O)[C@H](CO)NC(=O)[C@H](Cc1ccc(O)cc1)NC(=O)[C@H](CC(=O)O)NC(=O)[C@H](CO)NC(=O)[C@@H](NC(=O)[C@H](Cc1ccccc1)NC(=O)[C@@H](NC(=O)CNC(=O)[C@@H](N)CCC(=O)O)[C@@H](C)O)[C@@H](C)CC)C(=O)N[C@@H](C)C(=O)N[C@@H](CCSC)C(=O)N[C@@H](CCCCNC(=O)CCCCCCCCCCCCCCC(=O)O)C(=O)N[C@@H](CCCCN)C(=O)N[C@H](C(=O)N[C@@H](Cc1c[nH]cn1)C(=O)N[C@@H](CCC(N)=O)C(=O)N[C@@H](CCC(N)=O)C(=O)N[C@@H](CC(=O)O)C(=O)N[C@@H](Cc1ccccc1)C(=O)N[C@H](C(=O)N[C@@H](CC(N)=O)C(=O)N[C@@H](Cc1c[nH]c2ccccc12)C(=O)N[C@@H](CC(C)C)C(=O)N[C@@H](CC(C)C)C(=O)N[C@@H](C)C(=O)N[C@@H](CCC(N)=O)C(=O)N[C@@H](CCCCN)C(N)=O)C(C)C)[C@@H](C)CC
# Molecular target: T1, human GIP receptor
# Test: cell-based or functional assay
Binder,"cAMP antagonism, log (IC50) [log M]","cAMP antagonism, nM (IC50) [nM]","cAMP agonism, EC50 (log) [log M]","cAMP agonism, Emax [%]","cAMP agonism, nM (EC50) [nM]"
B1,-7.6,24.9,–,–,–
B2,-7,90,-7.6,24.2,28
B3,-6.8,166,-8.1,12,8
B4,-7,93,-7.9,4.9,14
B5,-6.7,199,–,–,–
B6,-6.8,163,-7.9,8.5,12
B7,-7.2,69,–,–,–
B8,-7.3,53,-7.9,6.6,13
